This assay deals with T1, GST–ACS7 (Arabidopsis thaliana, UniProt Q9STR4 1-447).
T1 construct: ACS7, 1-aminocyclopropane-1-carboxylate synthase 7, Arabidopsis thaliana; Vector pDEST15; also called recombinant GST–ACS7; N-tagged GST–ACS7; source: E. coli BL21-CodonPlus (DE3)-RIL, purified (Glutathione-Sepharose 4B); not shown: GST, N-terminal, kept
T1 sequence (looked up): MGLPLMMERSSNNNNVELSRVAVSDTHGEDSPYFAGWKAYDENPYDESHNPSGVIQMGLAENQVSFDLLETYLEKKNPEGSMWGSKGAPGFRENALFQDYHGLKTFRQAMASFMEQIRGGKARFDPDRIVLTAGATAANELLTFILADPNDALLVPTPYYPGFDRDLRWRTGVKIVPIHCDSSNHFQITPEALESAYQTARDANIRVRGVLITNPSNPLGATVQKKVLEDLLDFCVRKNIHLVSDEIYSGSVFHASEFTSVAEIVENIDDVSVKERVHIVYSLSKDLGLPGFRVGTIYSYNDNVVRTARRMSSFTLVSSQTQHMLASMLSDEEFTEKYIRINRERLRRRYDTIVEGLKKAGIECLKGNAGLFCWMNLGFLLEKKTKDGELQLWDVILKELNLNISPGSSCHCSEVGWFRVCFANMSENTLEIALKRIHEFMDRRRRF
Description: pull-down; GST–ACS7 pre-coupled to Glutathione-Sepharose 4B, preincubated with 1 mg/mL BSA; His-tagged ABI1 or ABI2 added in EBC buffer (100 mM NaCl, 0.5% Nonidet P-40, 100 mM NaF, 200 μM sodium orthovanadate, 50 mM Tris-HCl pH 8.0), 1 h, room temperature; washes with NENT buffer at 100/200/300 mM NaCl; immunoblot with anti-GST and anti-His. The note with it: both partners purified. (Immunoblotting shows a protein as a band on a membrane.)

B1: His–ABI1 (enzyme, Arabidopsis thaliana, UniProt P49597 1-434, looked up)
chain: MEEVSPAIAGPFRPFSETQMDFTGIRLGKGYCNNQYSNQDSENGDLMVSLPETSSCSVSGSHGSESRKVLISRINSPNLNMKESAAADIVVVDISAGDEINGSDITSEKKMISRTESRSLFEFKSVPLYGFTSICGRRPEMEDAVSTIPRFLQSSSGSMLDGRFDPQSAAHFFGVYDGHGGSQVANYCRERMHLALAEEIAKEKPMLCDGDTWLEKWKKALFNSFLRVDSEIESVAPETVGSTSVVAVVFPSHIFVANCGDSRAVLCRGKTALPLSVDHKPDREDEAARIEAAGGKVIQWNGARVFGVLAMSRSIGDRYLKPSIIPDPEVTAVKRVKEDDCLILASDGVWDVMTDEEACEMARKRILLWHKKNAVAGDASLLADERRKEGKDPAAMSAAEYLSKLAIQRGSKDNISVVVVDLKPRRKLKSKPLN
notes: ABI1, group A protein phosphatase type 2C, Arabidopsis thaliana; Vector pDEST17; also called His-tagged ABI1; source: E. coli BL21-CodonPlus (DE3)-RIL, purified (Ni-Sepharose 6 Fast Flow)
For the molecule B1, the binding result is “binds”.

B2: His–ABI2 (enzyme, Arabidopsis thaliana, UniProt O04719 1-423, looked up)
chain: MDEVSPAVAVPFRPFTDPHAGLRGYCNGESRVTLPESSCSGDGAMKDSSFEINTRQDSLTSSSSAMAGVDISAGDEINGSDEFDPRSMNQSEKKVLSRTESRSLFEFKCVPLYGVTSICGRRPEMEDSVSTIPRFLQVSSSSLLDGRVTNGFNPHLSAHFFGVYDGHGGSQVANYCRERMHLALTEEIVKEKPEFCDGDTWQEKWKKALFNSFMRVDSEIETVAHAPETVGSTSVVAVVFPTHIFVANCGDSRAVLCRGKTPLALSVDHKPDRDDEAARIEAAGGKVIRWNGARVFGVLAMSRSIGDRYLKPSVIPDPEVTSVRRVKEDDCLILASDGLWDVMTNEEVCDLARKRILLWHKKNAMAGEALLPAEKRGEGKDPAAMSAAEYLSKMALQKGSKDNISVVVVDLKGIRKFKSKSLN
notes: ABI2, group A protein phosphatase type 2C, Arabidopsis thaliana; Vector pDEST17; also called His-tagged ABI2; source: E. coli BL21-CodonPlus (DE3)-RIL, purified (Ni-Sepharose 6 Fast Flow)
For B2, the binding result is reported as “binds”.

For the origin of these results see article PMC7227406, “Protein Phosphatases Type 2C Group A Interact with and Regulate the Stability of ACC Synthase 7 in Arabidopsis” (Cells, 2020).
